# Measurements: the DeepSol protein solubility set
# Assay: soluble on expression in E. coli; label from the status in PepcDB or PDB records
row,Sequence,soluble on expression in E. coli
1,MAHHHHHHMSLAREKYLKRKRELLENINLIDIGEKISNTGKNEGNSKSDNIKKESRSRDFIKNDNRTRESFKKNDRGEYIDNDRKHLKSNNYNMLSSYNNKDIKNENRDLRKSPYDHRKLNNKNEQDILSNKTKRSSTNLQYNNDYAFVNKENNVLINNSSKMVNSTNNINEYLKDLNNIDINDSLILLFYVCKLLLDMCSKVNMNQSSMNTSVTSVEMLRDMKSKNRKNIKLFKINILNNILIYLSDENVNTLTQGNPNYKDNNFEKRHEEIRIDEKCIDIEHVGINIVIKVIYINNIKKLIFKYLYLINNNFKHDGVGNINMYDGRLNKNEEQNYFTTPLMEHKNINFMNN,not soluble
2,MADKKEKLFSDFSPVSTEQWMEKVTADLKGADFEKKLVWKTNEGFKVKPFYRMEDLEGLKTTDALPGEFPYLRGTKKSNNEWLVRQEIKVECPKEANAKALDILNKGVDSLSFHVKAKELNAEYIETLLNGIQAECVELNFSTCQGHVVELAGLLVAYFQKKDYDVKKLRGSVNYDFFNKMLTRGKEKGDMVQTAKALIEAIQPLPFYRVLNVNAISLNNAGAYISQELGYALAWGNEYMNQLTDAGIPAATVAKKIKFNFGISSNYFLEIAKFRAARMLWANIVASYHPECLRDCDNKGANGECRCAAKMAVHAETSTFNLTLFDAHVNLLRTQTEAMSAALAGVDSMTVVPFDKTYSTPDEFSERLARNQQLLLKEESHFDKVIDPAAGSYYIENLTVSIAKQAWELFLAVEEAGGFYAALKAGTVQAAVNESNKARHKAVAQRREVLLGTNQFPNFNEKAGEKQPIEAKCCCGGDAHTCEKDVDTLVFDRAASEFEALRLETEASGKRPKAFMLTIGNLAMRQARAQYSCNFLACAGYEVIDNLGFETVEAGVEAAMAAKADIVVLCSSDDEYAEYAVPAFKALDGRAMFIVAGAPACMDELKAAGIENFIHVRVNVLDTLKEFNAKLLK,not soluble
3,MNLNIETSRRIELIDITSEVKEEVRISGVREGVCIISTRHTTAGIIVNENENGLREDILNMLERLVPQGAGYRHDRIDNNADSHLKAILLGSSEALPIVKGELELGTWQSIFFAEMDGPRNRAVNLTILKTELEHHHHHH,soluble
4,MEIVDTRTPNSKRFISGVTGDWEVIIGMEVHAQIISNSKLFSGASTKFGAEPNNHVSLIDAAMPGMLPVLNQECVRQAVRTGLGLKARINLRSVFDRKNYFYPDLPQGYQISQFRYPIVGEGKIIISIGPDSNGQFEDIEVGIERLHLEQDAGKSMHDQHPTMSFVDLNRSGVALMEIVSKPDMRSADEAKAYMTKLRTIVRYLGTCDGNMDEGSMRADVNVSVRRPGESFGTRCEIKNVNSIRFIGQAIEYEARRQIAILEDGGVIDQETRLFDAAKGETRSMRSKEEAHDYRYFPDPDLLPLEFDQAFVDALAAELPELPDDIKIRFINEMGLTAYDASILVTEKAIANYFEKVAHGRDGKTVANWVINDLLGALNKDNREIEETPVSPDQLGSIIDLIKEGTISGKIAKDLFEIIWHEGGDPRQIVEERNMKQVTDTKAIERAVDEIMANNSDKVAQAKQKPALAGWFVGQVMKTTGGKANPQTVNELVKLKLGID,not soluble
5,LKPHIAVAISGSIYNEAVIKEAFHIAQKEHAKFTAIYIDVFEKNRQYKDSQKQVHQHLMLAKSLGAKVKVVYSQTVALGLDEWCKNQDVTKLIIGQHIRNKWRDFFNTPLIDHLMSFEHS,not soluble
6,QDLTLSFNHIKSAVIYSAYPLTDKQVGELVQMLNKRFDSELKISVEIEPELIGGIKVEVGDQVLDLSVQGKLSALYTTMTN,not soluble
7,MISVFDIFKIGIGPSSSHTVGPMKAGKQFTDDLIARHILTDVTRVVVDVYGSLSLTGKGHHTDIAIIMGLAGNLPDTVDIDAIPSFIQDVNTHGRLLLANGQHEVEFPVDKCMNFHADNLSLHENGMRITALAGDKVLYSQTYYSIGGGFIVDEEHFGLTNSEPVNVPYPYKTAADLQRHCQETGLSLSGLMMQNELALHSKEALEQHFARVWEVMRSGIERGITTEGVLPGKLRVPRRAAALRRMLVSQDKTTTDPMAVVDWINMFALAVNEENAAGGRVVTAPTNGACGIVPAVLAYYDKFIREVNANSLARYMLVASAIGSLYKMNASISGAEVGCQGEVGVACSMAAAGLAELLGGSPAQVCIAAEIAMEHNLGLTCDPVAGQVQVPCIERNAIASVKAVNAARMAVRRTSEPRVCLDKVIETMYETGKDMNAKYRETSRGGLAMKIVTCD,not soluble
8,MKFKKLLSRIIIATMITFTGTLSYQAIEQTHISHAAHNYYGKKQCTWWAFKRRAQLGKPVSNRWGNAKNWYSNARRSGYATGHKPRKYAVMQSTRGYYGHVAVVEKVYKNGKIKISEYNYNVPLGYGTRIISKSSARNYNYIYLEHHHHHH,not soluble
9,MGKNKQNKFFQMKASANGKTADVFIYGEITKYAWEEYGEVSSITFKNELDELGDDIKTINLYINSPGGSVFETMAIIAMLQRHHAKIISYIDGIGASCASVLPMISDKIIMYANSMMMIHNAWTYASGNADQLRKAADDIERINQSMVQHYLTRAGDKLDEDTLKQLLDAETWLSAEEAMGYGLCDEIIPANNATACLDEKWMKEYKNIPQQLVNAQANISSNEMLERQKIAEEAKANADYIKTILGRIHS,not soluble
10,GTEDTFWKDETDFNLALTSCYTPLKNALNGGYYGTRGVMLRIARADEVDFRNDISDVYTVNRFTNSNTNSLTQGMFYQFYNALYRTNSIMQKLEEKKEQFSTDFQNSVKGECLFIRGFYLFQLAKEFKDAPLRLTASQSPSTFPLAKSSQADIWAQAKEDLKTAASLLPITNKIGKPTQGAAYAALGKIYVYEENWQEAINVLEPLTQNPYTYKLVEDFNWNFDDTHENNAESIFELLIEDVGGTDLWGDGENINSTQSNTRPKEYAAAEVGGWYEANPTQQIMDIFWKEKDKDGNFDYRARCSVAWDYEGCTYYQRPFREVFAQDKWKTYWILKYQNWKTQKDEPAPPKSFINERAIRYADVLLMLAEAYMNKGALDTSIGYINQIRRRANLNDYSGPITKEGVFEDLVHQRAIEFFVEGERFYDLRRWGLLEQTLKTCDDTRYKNYQTGKSDNINKFNYFPIPAKELDTNPLCTPSEGW,soluble
11,MPYLNCDTITGDFHFQMIRFARAMEVGDKLTMKGKIMNPANMSYLHLYQGFNSVYEKSPLSLHIRVQYLRNSIIYNSWFGSWGGEQFSQQPFLSGNYYSISVLKGPTYYSIYMGNLLITKYAFRNPANWQIGNLLGYGDWTVTSVSMTCVRPGVPTTPDPKATTTPTPTTTKAQNIIAEDPNGGQLGGGELVVTNPGSVGSGSGNSGNSSNNNNSSGNSNYGSNNSGSGNGNSNSGNGNSGNGNGNNAGNSGNGNGNSNGNNGNGSNGNGNGNNGNGNNGNNGNGHPQYPYPVPPHGYYPPGYPYPPGYPYPPPGAFYYPPGGIPQNGMNGQNGNGQPNIIVINSGGNKKRNRGGNLRPQFDVDLDGDEDEEC,not soluble
12,MSEPIDILIAGAGIGGLSCALALHQAGIGKVTLLESSSEIRPLGVGINIQPAAVEALAELGLGPALAATAIPTHELRYIDQSGATVWSEPRGVEAGNAYPQYSIHRGELQMILLAAVRERLGQQAVRTGLGVERIEERDGRVLIGARDGHGKPQALGADVLVGADGIHSAVRAHLHPDQRPLSHGGITMWRGVTEFDRFLDGKTMIVANDEHWSRLVAYPISARHAAEGKSLVNWVCMVPSAAVGQLDNEADWNRDGRLEDVLPFFADWDLGWFDIRDLLTRNQLILQYPMVDRDPLPHWGRGRITLLGDAAHLMYPMGANGASQAILDGIELAAALARNADVAAALREYEEARRPTANKIILANREREKEEWAAASRPKTEKSAALEAITGSYRNQVERPRLEHHHHHH,soluble
13,PNVVKMNKPFISLCPEITRAHALTLMDWLEDEHVTRHLSDSRHVSRFIEQVIDRVQLPVLTHLFNQGGRFFMAYDRHDVPVGFVRLVKTGSDCEIVLVIGNRDNWGRKLGASAIREGMKLAFFEMRAARLIAKVHPDNERSLNAFLRCGFVLESETP,not soluble
14,MNYQVLLYYKYTTIDDPEQFAQDHLAFCKAHHLKGRILVSTEGINGTLSGTKEETEQYMAHMHADERFKDMVFKIDEAEGHAFKKMHVRPRKEIVALDLEDDVDPRHTTGQYLSPVEFRKALEDDDTVIIDARNDYEFDLGHFRGAIRPDITRFRDLPDWIKENKALFTDKKVVTYCTGGIRCEKFSGWLLKEGFEDVAQLHGGIATYGKDPETKGQYWDGKMYVFDDRISVDINQVEKTIIGKDWFDGKPCERYINCANPECNKQILVSEENETKYLGACSYECAKHERNRYVQANNISDNEWQQRLTNFDDLHQHALEHHHHHH,soluble
15,MHSPTPFALAIFLGILYHIPTFSNQRSIMNNLELEQLINQKLSSDKINDYAPNGLQVEGKTEIKKIITGVTASQALINYAISQNADAILVHHGYFWKSETPCIRGMKGKRIKALLVNDINLYGYHLPLDVHPELGNNAQLAKLLDIENLQPLEKGSVSIPVWGELKEPMTGKDFAEKIEKVLNRKPLICIENGPHLIRKIGICTGGGQGYIDLAAEQGCDAFITGEVSEQTIHSAREQGLYFFSAGHHATERYGIKALGEWLAKEYGFDVEFKDIDNPALEHHHHHH,soluble
16,MVTQTNPVPVTYPTDAYIPTYLPDDKVSNLADLKKLIEMDSRLDLYLTRRRLDTSINLPTNTKTKDHPPNKEMLRIYVYNTTESSPRSDSGTPADSGKTTWTLRIEGKLLHESANGKHPFSEFLEGVAVDFKRLKPLGMGKKRKRDSSLSLPLNLQQPEYNDQDSTMGDNDNGEDEDSAEAESREEIVDALEWNYDENNVVEFDGIDIKRQGKDNLRCSITIQLRGVDGGKVQYSPNLATLIGMQTGSVNDAVYSIYKYILINNLFVTEQTEAQDGSNDAEDSSNENNNKNGAGDDDGVEGSTPKDKPELGEVKLDSLLQKVLDTNAAHLPLMNVVQTVNKLVSPLPPIILDYTIDLSKDTTYGATTLDVDVSHILHQPQPQPNLQKEEETDAEDTAKLREITKLALQLNSSAQKYQFFHELSLHPRETLTHYLWSSKQNELVLQGDQYFNEDAARTSDIYSNNNNDRSLMGNISLLYSQGRL,soluble
17,MNVGDVVKGEVLAIDDDKQVIVGIQGTGVEGVVPLKELSTQRVDDVNEAAKVGDVLDLVVISRIGSDKENGSYLLSHRRLEARKVWDDVEKEYEAGHTIKAPVTQVVKGGLVVDAGVRGFIPASMIDDHYVEDLNAYKGQELELKIIEIEPSENRLILSHRAVVEKQREALEHHHHHH,soluble
18,MANSPKKPSDGTGVSASDTPKYQHTVPETKPAFNLSPGKASELSHSLPSPSQIKSTAHVSSTHNDAAGNTDDSVLPKNVSPTTNLRVESNGDTNNMFSSPAGLALPKKDDKKKNKGTSKADSKDGKASNSSGQNAQQQSDPNKMQDVLFSAGIDVREEEALLNSSINASKSQVQTNNVKIPNHLPFLHPEQVSNYMRKVGKEQNFNLTPTKNPEILDMMSSACENYMRDILTNAIVISRHRRKAVKINSGRRSEVSAALRAIALIQKKEEERRVKKRIALGLEKEDYENKIDSEETLHRASNVTAGLRAGSKKQYGWLTSSVNKPTSLGAKSSGKVASDITARGESGLKFREAREEPGIVMRDLLFALENRRNSVQTIISKGYAKIRD,not soluble
19,MEDERIKLLFKEKALEILMTIYYESLGGNDVYIQYIASKVNSPHSYVWLIIKKFEEAKMVECELEGRTKIIRLTDKGQKIAQQIKSIIDIMENDT,soluble
20,MHHHHHHSSQEVGEHREITAEETAELLKNSHSVIITPGYGMAVAQAQYPVAEITEKLRARGINVRFGIHPVAGRLPGHMNVLLAEAKVPYDIVLEMDEINDDFADTDTVLVIGANDTVNPAAQDDPKSPIAGMPVLEVWKAQNVIVFKRSMNTGYAGVQNPLFFKENTHMLFGDAKASVDAILKAL,soluble
